Assays:
EGR1 [1] = target: T1, EGR1 (Homo sapiens, UniProt P18146 P18146:1-543); assay: competition; ELISA; self-competition vs 128 nM biotinylated SEQ 40 probe, 10 ug nuclear extract; conditions: protein: extract; tags: endogenous in nuclear extract of TPA-stimulated K-562 cells (Activemotif); label: biotin (probe)
Protocol: (§1) FIG. 2. A. Relative affinity. Quantitative competition ELISA involving hEGR1 were performed using a constant concentration of biotinylated SEQ ID NO.: 40 (128 nM) as the probe and 10 μg of protein extract. The probe-protein mix was incubated with increasing concentrations of SEQ ID NO.: 40, SEQ ID NO.: 41 or SEQ ID NO.: 42 competitors. The inhibition of hEGR1 binding by the probe was measured for each competitor at various concentrations and the resulting inhibition curves were fitted to an exponential decay model. […] Mean±SEM are given as a percentage of the maximum hEGR1 binding obtained with the probe in absence of competitor; n=2-4. B. Relative specificity. The relative binding of EGR1 oligonucleotide decoy sequences to hSP1 and hWT1 transcription factors was measured using quantitative ELISA. Top graph: representative OD binding values of SEQ ID NO.: 40 (128 nM) to either hSP1 or hWT1 transcription factors, as compared to hEGR1 binding, was detected with transcription factor-specific antibodies in either the presence or absence of SEQ ID NO.: 42 competitor (512 nM). For comparison, SEQ ID NO.: 11 binding to hSP1 is shown. […]
(§2) The affinity and specificity of decoy sequences for their transcription factor targets was measured with colorimetric transcription factor ELISA (Enzyme linked immuno adsorbent) kits (Panomics, Calif., USA). […]

[2] = target: T2, EGR1 (endogenous, HL60 cells) (Homo sapiens, UniProt P18146 P18146:1-543); assay: cell_activity; inhibition of CDK5R1 mRNA in HL60 cells 48 h after vitamin D3; figure legend states 443 nM
T2 sequence (P18146 whole entry, one chain of several): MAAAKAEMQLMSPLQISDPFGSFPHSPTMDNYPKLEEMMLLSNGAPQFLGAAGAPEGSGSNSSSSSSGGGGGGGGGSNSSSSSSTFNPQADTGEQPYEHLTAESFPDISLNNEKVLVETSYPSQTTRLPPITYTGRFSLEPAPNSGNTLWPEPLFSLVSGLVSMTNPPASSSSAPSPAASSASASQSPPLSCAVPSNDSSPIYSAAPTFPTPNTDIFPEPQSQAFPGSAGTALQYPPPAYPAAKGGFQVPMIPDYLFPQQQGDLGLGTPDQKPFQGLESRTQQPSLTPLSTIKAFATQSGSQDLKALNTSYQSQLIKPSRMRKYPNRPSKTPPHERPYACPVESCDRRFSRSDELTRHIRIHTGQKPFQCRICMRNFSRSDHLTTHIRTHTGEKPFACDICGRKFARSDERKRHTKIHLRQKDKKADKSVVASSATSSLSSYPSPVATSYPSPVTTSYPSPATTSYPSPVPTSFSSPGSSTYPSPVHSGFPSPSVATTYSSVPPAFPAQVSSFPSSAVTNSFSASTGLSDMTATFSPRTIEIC

[3] = target: T2, EGR1 (endogenous, HL60 cells); assay: cell_activity; inhibition of CDK5R1 mRNA in HL60 cells 48 h after vitamin D3; figure legend states 502 nM
EGR1 [4] = target: T1, EGR1; assay: competition; ELISA vs 128 nM biotinylated SEQ 40 probe, 10 ug nuclear extract; conditions: protein: extract; tags: endogenous in nuclear extract of TPA-stimulated K-562 cells (Activemotif)
Protocol: as §1, §2

[5] = target: T2, EGR1 (endogenous, HL60 cells); assay: cell_activity; inhibition of CDK5R1 mRNA in HL60 cells 48 h after vitamin D3; figure legend states 136 nM

T1 sequence (P18146 whole entry, one chain of several): as above

B1: SEQ ID NO 40 double EGR1 site decoy (dsDNA)
DNA 1: GTTATGCGTGGGCGTAGATGCGGGGGCGTTATAG
DNA 2: CTATAACGCCCCCGCATCTACGCCCACGCATAAC
- IC50 (EGR1 [1]): 215 nM
- IC50 [2]: 544 nM

B2: SEQ ID NO 41 EGR1 consensus decoy (dsDNA)
DNA 1: GATGCGTGGGCGTAGG
DNA 2: CCTACGCCCACGCATC
- IC50 [3]: 529 nM
- IC50 (EGR1 [4]): 250 nM

B3: SEQ ID NO 42 fused EGR1 sites decoy (dsDNA)
DNA 1: GTATGCGTGGGCGGTGGGCGTAG
DNA 2: CTACGCCCACCGCCCACGCATAC
- IC50 [5]: 150 nM
- IC50 (EGR1 [4]): 99 nM
